# Reference: patent publication US20240058441A1 (published 2024)
# B1: TKDm molecule (control molecule of TKD with mutated CTM, CTMmt, incapable of being recognized by lysosome) (VHH)
# VHH: DVQLQESGGGLVQAGGSLRLSCVASGRTFSTYPTGWFRQAPGKEREFVARINLSGGITNYADSVKGRFTISRDNAKNTVYLQMNSLKPEDTAVYYCGGGSTTWAGGIPTNFDYWGQGTQVTVSS
# B2: TKD molecule (nanobody-mediated KRas protein targeting degradation system; fusion protein BR2 - anti-KRas nanobody VHH - CTM) (VHH)
# VHH: B1 VHH
# Biological target: KRas protein (purified) (UniProt P01116 1-186)
# Assay: SPR
row,Kd,Binder
1,1.09 nM,B1
2,7.24 nM,B2
